Target: KNL1 (construct of the BLI titrations with ZWINT)
Experiment: BLI
Conditions: immobilized ligand KNL1, end of association (~500 s), parent read from panel c, read off a plot

Substance	response (analyte ZWINT^M1 15.6 nM, parent: est. 0.040)	response (analyte ZWINT^M1 31.2 nM, parent: est. 0.056)	response (analyte ZWINT^M1 62.5 nM, parent: est. 0.071)	response (analyte ZWINT^M1 125 nM, parent: est. 0.10)	response (analyte ZWINT^M1 250 nM, parent: est. 0.14)	response (analyte ZWINT^M1 500 nM, parent: est. 0.19)	response (analyte ZWINT^M1 1,000 nM, parent: est. 0.22)	response (analyte ZWINT^M2 500 nM, parent: est. 0.19)	response (analyte ZWINT^M2 1000 nM, parent: est. 0.22)
ZWINT (from UniProt O95229) C54A; L67A; I110A; L114A	0.025 nm	0.052 nm	0.071 nm	0.1 nm	0.14 nm	0.2 nm	0.19 nm	–	–
ZWINT (from UniProt O95229) C54A; S85R; I110A; L114A	–	–	–	–	–	–	–	0.055 nm	0.11 nm

Source: article PMC11189300
